Results reported in patent US20140148397A1 (University of California, published 2014).
Ends that are not written are not given here.

B1: AgRP(87-120) (peptide)
peptide: Ac-CVRLHESCLGQQVPCCDPAATCYCRFFNAFCYCR-NH2
modifications: disulfide (positions not given here); not fully specified; also: oxidatively folded, disulfide pairing not given here
B2: AgRP(83-120) (peptide)
peptide: SSRRCVRLHESCLGQQVPCCDPAATCYCRFFNAFCYCR-NH2
modifications: disulfide (positions not given here); not fully specified; also: oxidatively folded, disulfide pairing not given here

Tests used:
hMC3R = hMC3R (human, UniProt P41968 1-323); assay: cell-based or functional assay
hMC3R, sequence (P41968 whole entry): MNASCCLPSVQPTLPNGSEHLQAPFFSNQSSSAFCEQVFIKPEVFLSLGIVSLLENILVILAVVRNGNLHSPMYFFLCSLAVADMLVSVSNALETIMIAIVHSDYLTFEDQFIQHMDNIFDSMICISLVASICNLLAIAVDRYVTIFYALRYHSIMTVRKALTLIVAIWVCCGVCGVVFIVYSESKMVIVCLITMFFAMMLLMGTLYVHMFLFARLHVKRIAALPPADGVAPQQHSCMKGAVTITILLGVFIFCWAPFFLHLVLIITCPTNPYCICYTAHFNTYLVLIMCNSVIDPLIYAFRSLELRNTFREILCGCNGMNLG

hMC4R = hMC4R (human, UniProt P32245 1-332); assay: cell-based or functional assay
hMC4R, sequence (P32245 whole entry): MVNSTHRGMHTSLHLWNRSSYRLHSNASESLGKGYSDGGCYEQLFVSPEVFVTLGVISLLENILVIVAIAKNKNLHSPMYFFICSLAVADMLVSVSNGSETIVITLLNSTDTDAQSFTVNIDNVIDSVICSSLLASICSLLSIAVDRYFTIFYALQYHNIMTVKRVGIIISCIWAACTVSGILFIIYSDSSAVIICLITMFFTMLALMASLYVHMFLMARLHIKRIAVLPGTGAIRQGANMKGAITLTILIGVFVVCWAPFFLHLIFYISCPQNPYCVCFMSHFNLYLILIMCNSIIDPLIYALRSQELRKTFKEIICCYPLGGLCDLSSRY

Binder | EC50 (nM), NDP-MSH stimulated cAMP production in the presence of 0.10 µM AgRP protein (hMC3R) [nM] | EC50 (nM), NDP-MSH stimulated cAMP production in the presence of 0.10 µM AgRP protein (hMC4R) [nM]
SSRRCVRLHESCLGQQVPCCDPCATCYCRFFNAFCYCRQLGTAMNPCSQT-NH2 (disulfide (positions not given here)) [AgRP-2Q] | 9.22 | 6.66
SSQQCVRLHESCLGQQVPCCDPCATCYCRFFNAFCYCRQLGTAMNPCSQT-NH2 (disulfide (positions not given here)) [AgRP-4Q] | 1.62 | 1.8
KKRRCVRLHESCLGQQVPCCDPCATCYCRFFNAFCYCRKLKTKMNPCSRT-NH2 (disulfide (positions not given here)) [AgRP-4K] | 2.66 | 1.72
SSRRCVRLHESCLGQQVPCCDPCATCYCRFFNAFCYCRKLKTKMNPCSRT-NH2 (disulfide (positions not given here)) [AgRP-2K] | 16.1 | 4.54
B1 | 5.5 | 
B2 | 2.96 | 4.92
